Test results published in article doi:10.1101/2024.09.05.611400.

Target: SARS-CoV-2 main protease (M^pro), commercial recombinant (rcM^pro) (SARS-CoV-2) (UniProt P0DTD1)
Experiment: enzyme inhibition assay

Substance PPACK (D-Phe-Pro-Arg-CH2Cl) (peptide) has a Ki of 160 nM.
